Publication PMC3137711 (Molecular imaging and biology : MIB : the official …, 2011)

Experiments:
[1] = system: MDA-MB-435 tumor-bearing mice; test: MicroPET imaging; type: in vivo, mouse; settings: co-injection with 300 µg unlabeled c(RGDfk) per mouse
[2] = MicroPET imaging; type: in vivo, mouse; settings: female, athymic nude, mouse, in vivo, 100 uCi, total radioactivity

With `CC(=O)N(O)CCCCCNC(=O)CCC(=O)N(O)CCCCCNC(=O)CCC(=O)N(O)CCCCCNC(=S)Nc1ccc(NC(=S)NCCOCCOCCOCCOCCC(=O)N[C@@H](CCC(=O)NCCOCCOCCOCCOCCC(=O)NCCCC[C@@H]2NC(=O)[C@@H](Cc3ccccc3)NC(=O)[C@H](CC(=O)O)NC(=O)CNC(=O)[C@H](CCCNC(=N)N)NC2=O)C(=O)NCCOCCOCCOCCOCCC(=O)NCCCC[C@@H]2NC(=O)[C@@H](Cc3ccccc3)NC(=O)[C@H](CC(=O)O)NC(=O)CNC(=O)[C@H](CCCNC(=N)N)NC2=O)cc1` [^89Zr-Df-[FK]2-3PEG4, metal not drawn] the “decrease of tumor uptake (PET) by blocking” value [1] was “approximately 90%”, the tissue to tissue ratio at 0.5 h [2] was 12.6 ± 1.07 and the tissue to tissue ratio at 1 h [2] was 16.2 ± 3.23. The tissue to tissue ratio at 2 h [2] was 18.2 ± 2.52, the tissue to tissue ratio at 4 h [2] was 19.7 ± 3.99 and the tissue to tissue ratio at 24 h [2] was 10.8 ± 1.31. It also gave a tissue uptake at 0.5 h ([2]; SD) of 3.98 ± 0.5 %ID/g, a tissue uptake at 2 h ([2]; SD) of 4.72 ± 0.66 %ID/g and a tissue uptake at 4 h ([2]; SD) of 4.47 ± 0.81 %ID/g. For the same compound, the tissue uptake at 24 h ([2]; SD) was 2.2 ± 0.26 %ID/g.
